The values that follow come from paper PMC10521239 (Protein Science : A Publication of the Protein Society, 2023).

For this assay, the target named is HPC4 tagged human fIX without the gamma-carboxyglutamic (GLA) domain, wild type (Homo sapiens). The assay can be described thus: ELISA. A general note: An ELISA detects its analyte on a solid surface through an enzyme-linked reagent.
Sequence of HPC4 tagged human fIX without the gamma-carboxyglutamic (GLA) domain, wild type (Homo sapiens) (P00740 93-461): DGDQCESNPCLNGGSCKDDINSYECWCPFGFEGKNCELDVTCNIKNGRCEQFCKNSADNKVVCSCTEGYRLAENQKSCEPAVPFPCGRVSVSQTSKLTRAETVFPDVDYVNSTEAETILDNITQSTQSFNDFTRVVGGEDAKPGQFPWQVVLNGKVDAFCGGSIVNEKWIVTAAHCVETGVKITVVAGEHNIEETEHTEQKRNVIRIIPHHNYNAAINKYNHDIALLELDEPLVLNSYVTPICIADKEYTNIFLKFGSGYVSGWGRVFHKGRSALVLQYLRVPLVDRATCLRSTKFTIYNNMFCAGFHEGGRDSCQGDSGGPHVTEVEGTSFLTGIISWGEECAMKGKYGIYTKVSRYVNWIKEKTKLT

B1: anti-fIXa NN-8895 full-length mAb (antibody, V domains shown)
VH: EVQLVESGGGLVQPGRSLRLSCAASGFIFDDYAMHWVRQVPGKGLEWVSGISWNSDNIGYVDSVKGRFTISRDNAKNSLYLQMNSLRIEDTALYYCAKAFGSGSYYNGFDYWGQGALVTVSS
VL: DIQMTQSPSTLSASAGDRVTISCRASQSISSWLAWYQQKPGKAPKLLIYKASSLESGVPSRFSGSGSGTEFTLTISSLQPDDFATYYCQEYNSYIRTFGQGTKVEIK
Consider B1, for which the binding result was “binds”.
